Measured values reported in the RNAGym collection of RNA variant scans (doi:10.1021/acssynbio.7b00057).

B1: Pistol ribozyme (parent)
chain: GGGUCGUUGUUCCAUAAUCGCGUGGAUAUGGCACGCAAGUUUCUACCGGGCACCGUAAAUGUCCGACUGGAGCCGUUCGGGCGGCUAUAAACAGACCUCAGGCCCGAAGCGUGGCGGCACCUGCCGCCGGUGGUAAAAAAGAUCGGAAGAGCACACGUCU

Variants of: B1
Assay: aptazyme ON/OFF ratio, guanine; higher = stronger switching; co-transcriptional cleavage with and without guanine

Variant	aptazyme ON/OFF ratio
U7G U8C G9A U10G U11C C13G	1.07
U7G U8C G9A U10G U11C C13A	1.14
U7G U8C G9A U10G U11C C13U	1.05
U7G U8C G9A U10G U11A C12G C13G	1.24
U7G U8C G9A U10G U11A C12G C13A	1.09
U7G U8C G9A U10G U11A C12G C13U	1.12
U7G U8C G9A U10G U11C C12A C13G	1.16
U7G U8C G9A U10G U11C C12A C13A	1.15
U7G U8C G9A U10G U11C C12A C13U	1.19
U7G U8C G9A U11C C12U	1.65
U7G U8C G9A U11C C12A	2
U7G U8C G9A U11C C12G	1.4
U7G U8C G9A U10C U11G C12U	1.37
U7G U8C G9A U10C U11G C12G	1.12
U7G U8C G9A U10G C13G	1.19
U7G U8C G9A U10G C13A	1.28
U7G U8C G9A U10G C13U	1.26
U7G U8C G9A U10G C12A C13G	1.03
U7G U8C G9A U10G C12A C13U	1.09
U7G U8C G9A U10G C12A C13A	1.07
U7G U8C G9C U10G U11G C12A C13A	1.11

Variant	aptazyme ON/OFF ratio
U7G U8C G9C U10G U11G C12A C13U	1.1
U7G U8C G9C U10G U11G C12A C13G	1.13
U7G U8C G9A U10G U11G C12A C13G	1.1
U7G U8C G9A U10G U11G C12A C13U	1.3
U7G U8C G9A U10G U11G C12A C13A	1.13
U7G U8C G9A U10G U11G C12U C13G	1.22
U7G U8C G9A U10G U11G C12U C13U	1.52
U7G U8C G9A U10G U11G C12U C13A	1.28
U7G U8C G9A U10G U11A C12A C13U	1.11
U7G U8C G9A U10G U11A C12A C13G	1.09
U7G U8C G9A U10G U11A C12A C13A	1.04
U7G U8C G9A U10G	3.04
U7G U8C G9A U10G U11G C12G	1.27
U7G U8C G9A U10G U11G C12U	1.35
U7G U8C G9A U10G U11G C12A	1.3
U7G U8C G9A U10G U11A C12U C13U	1.13
U7G U8C G9A U10G U11A C12U C13A	1.09
U7G U8C G9A U10G U11A C12U C13G	1.09
U7G U8C G9C U10C U11C C12U C13A	1.05
U7G U8C G9C U10C U11C C12U C13U	1.03
U7G U8C G9C U10C U11C C12U C13G	1.21

Variant	aptazyme ON/OFF ratio
U7G U8C G9A U11C C12A C13G	1.17
U7G U8C G9A U11C C12A C13U	1.5
U7G U8C G9A U11C C12A C13A	1.11
U7G U8C G9C U10C U11G C12U C13U	1.08
U7G U8C G9C U10C U11G C12U C13G	1.08
U7G U8C G9C U10C U11G C12U C13A	1.08
U7G U8C G9A U11C C12G C13A	1.05
U7G U8C G9A U11C C12G C13U	1.16
U7G U8C G9A U11C C12G C13G	1.05
U7G U8C G9C U10C	1.92
U7G U8C G9C U10G	1.17
U7G U8C G9C U10A	2.18
U7G U8C G9C U10A C12A	1.09
U7G U8C G9C U10A C12G	1.25
U7G U8C G9C U10A C12U	1.06
U7G U8C G9C U10A U11A C12A C13A	1.12
U7G U8C G9C U10A U11A C12A C13U	1.11
U7G U8C G9C U10A U11A C12A C13G	1.09
U7G U8C G9A U10G C12G C13U	1.15
U7G U8C G9A U10G C12G C13A	1.12
U7G U8C G9A U10G C12G C13G	1.05

Variant	aptazyme ON/OFF ratio
U7G U8C G9C U10G U11A C12A C13G	1.11
U7G U8C G9C U10G U11A C12A C13A	1.1
U7G U8C G9C U10G U11A C12A C13U	1.25
U7G U8C G9C C12G C13A	1.13
U7G U8C G9C C12G C13G	1.12
U7G U8C G9C C12G C13U	1.09
U7G U8C G9A U11G C12A C13G	1.1
U7G U8C G9A U11G C12A C13A	1.1
U7G U8C G9A U11G C12A C13U	1.12
U7G U8C G9C U10G C12A C13A	1.1
U7G U8C G9C U10G C12A C13U	1.13
U7G U8C G9C U10G C12A C13G	1.1
U7G U8C G9C C13G	1.05
U7G U8C G9C C13U	1.15
U7G U8C G9C C13A	1.11
U7G U8C G9A U11G C12U C13A	1.11
U7G U8C G9A U11G C12U C13G	1.07
U7G U8C G9A U11G C12U C13U	1.18
U7G U8C G9C U10C U11G C12G	1.06
U7G U8C G9C U10C U11G C12U	1.1
U7G U8C G9C U10C U11G C12A	1.14
